Laboratory results reported in article PMC11008601, “Motor properties of Myosin 5c are modulated by tropomyosin isoforms and inhibited by pentabromopseudilin” (Frontiers in Physiology, 2024).

Columns and labels:
Myo5c–HMM = molecular target: T1, Myo5c–HMM (Homo sapiens, UniProt Q9NQX4); experiment: NADH-coupled steady-state actin-activated ATPase assay, dose-response fit; assay type: biochemical
T1 construct: heavy meromyosin fragment, residues 1-1108 (motor domain, six IQ motifs, coiled coil), C-terminal Flag tag, co-produced with light chains in baculovirus/Sf9, anti-FLAG purification; dimer; six CaM per heavy chain when co-produced with CaM only; with Calmodulin-1
T1 sequence (Q9NQX4 1-1108): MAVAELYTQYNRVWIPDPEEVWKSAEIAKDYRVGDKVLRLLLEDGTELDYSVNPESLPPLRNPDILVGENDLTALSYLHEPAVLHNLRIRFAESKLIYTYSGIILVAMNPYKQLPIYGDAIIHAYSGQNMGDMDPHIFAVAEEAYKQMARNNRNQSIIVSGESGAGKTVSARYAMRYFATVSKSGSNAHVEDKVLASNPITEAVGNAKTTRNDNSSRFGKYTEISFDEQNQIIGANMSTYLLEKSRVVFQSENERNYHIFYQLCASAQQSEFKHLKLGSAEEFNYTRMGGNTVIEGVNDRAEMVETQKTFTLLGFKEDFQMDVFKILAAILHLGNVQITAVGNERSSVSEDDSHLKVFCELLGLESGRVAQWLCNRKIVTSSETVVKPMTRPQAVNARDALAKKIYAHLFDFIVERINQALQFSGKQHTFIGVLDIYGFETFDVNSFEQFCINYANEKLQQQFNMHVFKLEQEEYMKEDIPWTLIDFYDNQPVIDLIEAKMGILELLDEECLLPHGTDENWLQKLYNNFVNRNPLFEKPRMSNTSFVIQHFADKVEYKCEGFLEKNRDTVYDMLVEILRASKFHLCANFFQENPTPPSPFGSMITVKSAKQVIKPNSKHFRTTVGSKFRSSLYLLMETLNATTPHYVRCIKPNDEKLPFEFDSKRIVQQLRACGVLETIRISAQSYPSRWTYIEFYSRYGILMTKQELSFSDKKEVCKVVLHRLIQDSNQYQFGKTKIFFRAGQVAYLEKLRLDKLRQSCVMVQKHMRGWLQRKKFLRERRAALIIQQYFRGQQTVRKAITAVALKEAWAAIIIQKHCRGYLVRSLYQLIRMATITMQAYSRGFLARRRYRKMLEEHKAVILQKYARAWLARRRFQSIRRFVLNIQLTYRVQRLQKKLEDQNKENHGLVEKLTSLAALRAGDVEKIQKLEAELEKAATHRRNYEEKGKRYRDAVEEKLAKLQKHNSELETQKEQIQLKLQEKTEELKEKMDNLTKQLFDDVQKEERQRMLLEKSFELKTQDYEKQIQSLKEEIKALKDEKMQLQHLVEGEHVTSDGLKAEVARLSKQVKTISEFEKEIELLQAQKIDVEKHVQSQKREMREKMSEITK

[1] = molecular target: cofilaments of actin and Tpm1.6 (not stated (human β–actin or chicken α–skeletal actin prepared) | human) (UniProt P60709)
[2] = molecular target: cofilaments of actin and Tpm1.8 (not stated (human β–actin or chicken α–skeletal actin prepared) | human) (UniProt P60709)
[3] = molecular target: cofilaments of actin and Tpm3.1 (not stated (human β–actin or chicken α–skeletal actin prepared) | human) (UniProt P60709)
[4] = molecular target: F–actin (bare actin filaments) (not stated (human β–actin or chicken α–skeletal actin prepared)) (UniProt P60709)
[5] = molecular target: Myo5c–HMM heavy chain (human Myo5c, amino acids 1–1108, C-terminal Flag) (human) (UniProt Q9NQX4); experiment: co-purification on anti-FLAG affinity resin, Coomassie gel and immunoblot; Myo5c–HMM-Flag co-produced with CaM alone in Sf9; lysate on anti-FLAG-M2 resin 2 h at 4°C, washed with 500 mM NaCl and 2 mM ATP, then 100 mM NaCl, eluted with FLAG peptide; blot with anti-Flag and anti-CaM; ratio from the gel
Chain of Myo5c–HMM heavy chain (human Myo5c, amino acids 1–1108, C-terminal Flag) (human) (Q9NQX4 1-1108): as above

[6] = molecular target: Myo5c–HMM heavy chain (human Myo5c, amino acids 1–1108, C-terminal Flag) (human) (UniProt Q9NQX4); experiment: co-purification on anti-FLAG affinity resin, Coomassie gel and immunoblot; Myo5c–HMM-Flag co-produced with CaM, RLC (Myl12b) and ELC (Myl6) in Sf9; lysate on anti-FLAG-M2 resin 2 h at 4°C, washed with 500 mM NaCl and 2 mM ATP, then 100 mM NaCl, eluted with FLAG peptide; blot with anti-Myl12b, anti-CaM, anti-Myl6; ratios from the Coomassie-stained gel
[7] = molecular target: T2, Myo5c–HMM heavy chain (human Myo5c, amino acids 1–1108, C-terminal Flag) (human, UniProt Q9NQX4 1-1108); experiment: as above; conditions: partners not purified
T2 construct: human myosin 5c (Myo5c) heavy chain, amino acids 1-1108 (motor domain, neck with IQ motifs, part of the coiled coil), Uniprot-ID Q9NQX4; Cloned in pFastBac Dual under the polyhedrin promotor; also called heavy meromyosin fragment of the Myo5c heavy chain; source: baculovirus/Sf9, co-produced with light chains; not shown: Flag, C-terminal, kept
T2 sequence (Q9NQX4 1-1108): as above

Molecule: Oc1c(Br)cc(Br)cc1-c1[nH]c(Br)c(Br)c1Br [PBP, 2,3,4–tribromo–5–(3,5–dibromo–2–hydroxyphenyl)–1H–pyrrole]
- IC50 (Myo5c–HMM): 280 ± 60 nM

Molecule: Myo5c–HMM (CaM): Myo5c–HMM heavy chain co-produced and co-purified with calmodulin (from UniProt Q9NQX4 1-1108; P0DP23 1-149) (complex)
- K (app actin) of the steady-state actin-activated ATPase (NADH-coupled assay, 30°C, 0.15 µM myosin), actin–Tpm1.6 cofilaments [1]: 2.31 µM
- K (app actin) of the steady-state actin-activated ATPase (NADH-coupled assay, 30°C, 0.15 µM myosin), actin–Tpm1.8 cofilaments [2]: 3.24 µM
- K (app actin) of the steady-state actin-activated ATPase (NADH-coupled assay, 30°C, 0.15 µM myosin), actin–Tpm3.1 cofilaments [3]: 5.54 µM
- K (app actin) of the steady-state actin-activated ATPase (NADH-coupled assay, 30°C, 0.15 µM myosin), bare actin [4]: 5.7 µM

Molecule: calmodulin (CaM) (from UniProt P0DP23 1-149) (natural protein)
- stoichiometry N (CaM per heavy chain) [5]: 6
- stoichiometry N (light chain:heavy chain) [6]: 2

B1: regulatory light chain Myl12b (natural protein, human (from the printed UniProt entry), UniProt O14950 1-172, looked up)
chain: MSSKKAKTKTTKKRPQRATSNVFAMFDQSQIQEFKEAFNMIDQNRDGFIDKEDLHDMLASLGKNPTDAYLDAMMNEAPGPINFTMFLTMFGEKLNGTDPEDVIRNAFACFDEEATGTIQEDYLRELLTTMGDRFTDEEVDELYREAPIDKKGNFNYIEFTRILKHGAKDKDD
notes: myosin regulatory light chain 12B (Myl12b), Uniprot-ID O14950 (a human entry); the vector was prepared as in Reindl et al., 2022; also called RLC; source: baculovirus/Sf9, co-produced with Myo5c–HMM, CaM and Myl6
- stoichiometry N [7]: ~3 light chain:heavy chain

B2: essential light chain Myl6 (natural protein, human (from the printed UniProt entry), UniProt P60660 1-151, looked up)
chain: MCDFTEDQTAEFKEAFQLFDRTGDGKILYSQCGDVMRALGQNPTNAEVLKVLGNPKSDEMNVKVLDFEHFLPMLQTVAKNKDQGTYEDYVEGLRVFDKEGNGTVMGAEIRHVLVTLGEKMTEEEVEMLVAGHEDSNGCINYEAFVRHILSG
notes: myosin essential light chain Myl6, Uniprot-ID P60660 (a human entry); the vector was prepared as in Reindl et al., 2022; also called ELC; source: baculovirus/Sf9, co-produced with Myo5c–HMM, CaM and Myl12b
- stoichiometry N [7]: ~1 light chain:heavy chain
